Data reported in patent publication US20140206849A1 (Alexion, published 2014).

Columns and labels:
human C5a [1] = molecular target: T1, human C5a (human, UniProt P01031 678-751); assay: SPR (Biacore), 'under similar conditions' to the humanized antibody; murine antibody
T1 sequence (looked up): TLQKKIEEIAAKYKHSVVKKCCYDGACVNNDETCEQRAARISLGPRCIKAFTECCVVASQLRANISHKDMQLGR

human C5a [2] = molecular target: T1, human C5a; assay: SPR (Biacore), antibody captured by anti-human Fc on CM5 chip, human C5a 0.6-5.9 nM in solution, 1:1 Langmuir fit; humanized antibody
Source text: The humanized antibody was subjected to BIAcore analysis to quantify its affinity for human C5a, in part, to determine if humanization affected the binding affinity of the antibody for its antigen. See, e.g., Karlsson and Larsson (2004) Methods Mol Biol 248:389-415. Briefly, the humanized antibody was screened with 3-4 concentrations of human C5a (antigen) using a capture technique. The antibody was captured by an anti-Fc (human) antibody directly immobilized on a CM5 sensor chip with various concentrations in the range from 0.6 nM to 5.9 nM of human C5a passed over the sensor chip surface. The surface was regenerated with 20 mM HCl, 0.02% P20 after each cycle to remove bound antibody and antigen. The data were evaluated using Biacore BIAevaluation software using a 1:1 Langmuir Model Fit (Rmax:Global Fit; RI:Local Fit). Kinetics information such as kₐ (Association Rate constant), kd (Dissociation Rate constant), and KD (Equillibrium Dissociation constant) was obtained from the fit. […] Methods for testing the humanized antibody for reduced immunogenicity in a human, as compared to the donor antibody, are known in the art and described herein.

B1: murine anti-human C5a antibody (antibody, V domains shown)
VH: EVQLQQSGPELVKPGSSVKISCKASGYTFTDYSMDWVKQSHGKSLEWIGAINPNSGGTNYSQKFKDKATLTVDKSSSTAYMELRSLTSEDSAVYYCASSGSYDGYYAMDYWGQGTSVTVSS
VL: DIVMTQSPASLAVSLGQRATISCRASESVDSYGNSFMHWYQQKPGQPPKLLIYRASNLESGIPARFSGSGSRTDFTLTINPVEADDVATYYCQQSNEDPYTFGGGTKLEIKR
notes: also called murine anti-C5a antibody; murine anti-C5a antibody counterpart
Kd (human C5a [1]): ~512 pM | koff (human C5a [1]): ~0.00141 s⁻¹ | kon (human C5a [1]): ~2.76e+06 M⁻¹ s⁻¹

B2: humanized anti-human C5a antibody (antibody, V domains shown)
VH: QVQLVQSGAEVKKPGASVKVSCKASGYTFTDYSMDWVRQAPGQGLEWMGAINPNSGGTNYNQKFKDRVTMTRDTSTSTVYMELSSLRSEDTAVYYCARSGSYDGYYAMDYWGQGTTVTVSS
VL: DIQMTQSPSSLSASVGDRVTITCRASESVDSYGNSFMHWYQQKPGKAPKLLIYRASNLESGVPSRFSGSGSGTDFTLTISSLQPEDFATYYCQQSNEDPYTFGGGTKVEIK
notes: also called humanized anti-C5a antibody; the humanized antibody
Kd (human C5a [2]): ~298 pM | koff (human C5a [2]): ~0.000576 s⁻¹ | kon (human C5a [2]): ~1.93e+06 M⁻¹ s⁻¹
